First the molecules themselves.
B1: Rho guanine nucleotide exchange factor 3 (Homo sapiens), Q9NR81 (parent)
chain: MVAKDYPFYLTVKRANCSLELPPASGPAKDAEEPSNKRVKPLSRVTSLANLIPPVKATPLKRFSQTLQRSISFRSESRPDILAPRPWSRNAAPSSTKRRDSKLWSETFDVCVNQMLTSKEIKRQEAIFELSQGEEDLIEDLKLAKKAYHDPMLKLSIMTEQELNQIFGTLDSLIPLHEELLSQLRDVRKPDGSTEHVGPILVGWLPCLSSYDSYCSNQVAAKALLDHKKQDHRVQDFLQRCLESPFSRKLDLWNFLDIPRSRLVKYPLLLREILRHTPNDNPDQQHLEEAINIIQGIVAEINTKTGESECRYYKERLLYLEEGQKDSLIDSSRVLCCHGELKNNRGVKLHVFLFQEVLVITRAVTHNEQLCYQLYRQPIPVKDLLLEDLQDGEVRLGGSLRGAFSNNERIKNFFRVSFKNGSQSQTHSLQANDTFNKQQWLNCIRQAKETVLCAAGQAGVLDSEGSFLNPTTGSRELQGETKLEQMDQSDSESDCSMDTSEVSLDCERMEQTDSSCGNSRHGESNV
B2: E3 ubiquitin-protein ligase LNX (Homo sapiens), Q8TBB1 (parent)
chain: MNQPESANDPEPLCAVCGQAHSLEENHFYSYPEEVDDDLICHICLQALLDPLDTPCGHTYCTLCLTNFLVEKDFCPMDRKPLVLQHCKKSSILVNKLLNKLLVTCPFREHCTQVLQRCDLEHHFQTSCKGASHYGLTKDRKRRSQDGCPDGCASLTATAPSPEVSAAATISLMTDEPGLDNPAYVSSAEDGQPAISPVDSGRSNRTRARPFERSTIRSRSFKKINRALSVLRRTKSGSAVANHADQGRENSENTTAPEVFPRLYHLIPDGEITSIKINRVDPSESLSIRLVGGSETPLVHIIIQHIYRDGVIARDGRLLPGDIILKVNGMDISNVPHNYAVRLLRQPCQVLWLTVMREQKFRSRNNGQAPDAYRPRDDSFHVILNKSSPEEQLGIKLVRKVDEPGVFIFNVLDGGVAYRHGQLEENDRVLAINGHDLRYGSPESAAHLIQASERRVHLVVSRQVRQRSPDIFQEAGWNSNGSWSPGPGERSNTPKPLHPTITCHEKVVNIQKDPGESLGMTVAGGASHREWDLPIYVISVEPGGVISRDGRIKTGDILLNVDGVELTEVSRSEAVALLKRTSSSIVLKALEVKEYEPQEDCSSPAALDSNHNMAPPSDWSPSWVMWLELPRCLYNCKDIVLRRNTAGSLGFCIVGGYEEYNGNKPFFIKSIVEGTPAYNDGRIRCGDILLAVNGRSTSGMIHACLARLLKELKGRITLTIVSWPGTFL
partner: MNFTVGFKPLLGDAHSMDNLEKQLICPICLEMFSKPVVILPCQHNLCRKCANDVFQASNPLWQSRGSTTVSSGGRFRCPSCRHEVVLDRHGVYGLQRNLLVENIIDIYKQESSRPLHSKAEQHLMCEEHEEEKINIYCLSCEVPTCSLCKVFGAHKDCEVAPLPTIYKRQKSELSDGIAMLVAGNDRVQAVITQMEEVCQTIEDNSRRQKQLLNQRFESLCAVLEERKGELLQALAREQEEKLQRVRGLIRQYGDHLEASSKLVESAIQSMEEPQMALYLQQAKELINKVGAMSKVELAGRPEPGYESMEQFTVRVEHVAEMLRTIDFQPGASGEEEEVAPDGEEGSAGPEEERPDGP
B3: E3 ubiquitin-protein ligase LNX (Homo sapiens), Q8TBB1 (parent)
chain: B2 chain
partner: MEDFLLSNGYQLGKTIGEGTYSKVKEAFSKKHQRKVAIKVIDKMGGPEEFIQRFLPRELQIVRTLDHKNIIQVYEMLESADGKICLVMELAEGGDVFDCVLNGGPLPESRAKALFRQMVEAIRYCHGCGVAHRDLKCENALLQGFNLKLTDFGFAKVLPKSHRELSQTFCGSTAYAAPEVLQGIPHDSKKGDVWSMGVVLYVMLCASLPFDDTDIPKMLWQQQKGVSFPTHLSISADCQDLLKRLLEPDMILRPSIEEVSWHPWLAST
B4: Zinc finger protein ZXDC (Homo sapiens), Q2QGD7 (parent)
chain: MDLPALLPAPTARGGQHGGGPGPLRRAPAPLGASPARRRLLLVRGPEDGGPGARPGEASGPSPPPAEDDSDGDSFLVLLEVPHGGAAAEAAGSQEAEPGSRVNLASRPEQGPSGPAAPPGPGVAPAGAVTISSQDLLVRLDRGVLALSAPPGPATAGAAAPRRAPQASGPSTPGYRCPEPQCALAFAKKHQLKVHLLTHGGGQGRRPFKCPLEGCGWAFTTSYKLKRHLQSHDKLRPFGCPVGGCGKKFTTVYNLKAHMKGHEQESLFKCEVCAERFPTHAKLSSHQRSHFEPERPYKCDFPGCEKTFITVSALFSHNRAHFREQELFSCSFPGCSKQYDKACRLKIHLRSHTGERPFICDSDSCGWTFTSMSKLLRHRRKHDDDRRFTCPVEGCGKSFTRAEHLKGHSITHLGTKPFECPVEGCCARFSARSSLYIHSKKHVQDVGAPKSRCPVSTCNRLFTSKHSMKAHMVRQHSRRQDLLPQLEAPSSLTPSSELSSPGQSELTNMDLAALFSDTPANASGSAGGSDEALNSGILTIDVTSVSSSLGGNLPANNSSLGPMEPLVLVAHSDIPPSLDSPLVLGTAATVLQQGSFSVDDVQTVSAGALGCLVALPMKNLSDDPLALTSNSNLAAHITTPTSSSTPRENASVPELLAPIKVEPDSPSRPGAVGQQEGSHGLPQSTLPSPAEQHGAQDTELSAGTGNFYLESGGSARTDYRAIQLAKEKKQRGAGSNAGASQSTQRKIKEGKMSPPHFHASQNSWLCGSLVVPSGGRPGPAPAAGVQCGAQGVQVQLVQDDPSGEGVLPSARGPATFLPFLTVDLPVYVLQEVLPSSGGPAGPEATQFPGSTINLQDLQ
partner: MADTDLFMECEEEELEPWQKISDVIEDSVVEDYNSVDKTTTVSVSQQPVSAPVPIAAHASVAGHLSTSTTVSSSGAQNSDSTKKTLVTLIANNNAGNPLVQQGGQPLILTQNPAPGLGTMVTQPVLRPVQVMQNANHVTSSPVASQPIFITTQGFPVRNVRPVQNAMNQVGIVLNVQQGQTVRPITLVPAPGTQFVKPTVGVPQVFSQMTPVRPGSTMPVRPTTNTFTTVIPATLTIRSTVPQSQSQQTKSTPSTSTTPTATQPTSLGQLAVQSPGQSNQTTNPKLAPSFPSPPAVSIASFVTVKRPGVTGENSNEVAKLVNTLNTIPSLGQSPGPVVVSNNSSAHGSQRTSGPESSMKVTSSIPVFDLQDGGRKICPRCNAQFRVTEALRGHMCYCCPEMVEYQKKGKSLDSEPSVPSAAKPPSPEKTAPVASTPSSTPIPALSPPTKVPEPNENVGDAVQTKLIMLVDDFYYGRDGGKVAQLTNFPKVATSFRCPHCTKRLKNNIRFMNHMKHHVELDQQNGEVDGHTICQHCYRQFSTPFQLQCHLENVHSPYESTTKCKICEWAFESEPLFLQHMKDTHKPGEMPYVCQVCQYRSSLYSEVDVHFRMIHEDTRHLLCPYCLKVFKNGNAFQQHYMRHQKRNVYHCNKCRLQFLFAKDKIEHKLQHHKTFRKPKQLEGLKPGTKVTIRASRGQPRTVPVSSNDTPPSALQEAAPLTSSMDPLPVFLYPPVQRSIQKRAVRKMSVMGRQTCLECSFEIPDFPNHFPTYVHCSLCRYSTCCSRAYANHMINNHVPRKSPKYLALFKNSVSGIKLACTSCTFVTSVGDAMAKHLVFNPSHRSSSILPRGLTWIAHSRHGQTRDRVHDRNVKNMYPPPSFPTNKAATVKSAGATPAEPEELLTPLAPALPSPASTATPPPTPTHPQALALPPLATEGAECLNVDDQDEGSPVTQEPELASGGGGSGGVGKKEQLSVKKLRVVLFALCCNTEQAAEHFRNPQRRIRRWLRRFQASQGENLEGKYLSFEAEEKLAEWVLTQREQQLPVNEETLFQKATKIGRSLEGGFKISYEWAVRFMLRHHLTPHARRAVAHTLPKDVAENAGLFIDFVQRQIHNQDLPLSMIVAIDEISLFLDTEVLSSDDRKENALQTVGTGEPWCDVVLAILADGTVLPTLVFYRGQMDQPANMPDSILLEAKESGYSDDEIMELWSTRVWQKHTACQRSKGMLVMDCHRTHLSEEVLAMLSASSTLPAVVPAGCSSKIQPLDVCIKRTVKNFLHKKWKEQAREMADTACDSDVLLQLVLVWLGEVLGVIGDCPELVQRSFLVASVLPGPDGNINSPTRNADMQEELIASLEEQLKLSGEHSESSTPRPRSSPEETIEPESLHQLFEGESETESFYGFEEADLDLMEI

The text below walks through data of IntAct's records for PubMed 29892012.

In the first assay the parent is B1. The settings on record: with tri23_human TRIM23, P36406.
Sequence of tri23_human TRIM23, P36406 (P36406 whole entry): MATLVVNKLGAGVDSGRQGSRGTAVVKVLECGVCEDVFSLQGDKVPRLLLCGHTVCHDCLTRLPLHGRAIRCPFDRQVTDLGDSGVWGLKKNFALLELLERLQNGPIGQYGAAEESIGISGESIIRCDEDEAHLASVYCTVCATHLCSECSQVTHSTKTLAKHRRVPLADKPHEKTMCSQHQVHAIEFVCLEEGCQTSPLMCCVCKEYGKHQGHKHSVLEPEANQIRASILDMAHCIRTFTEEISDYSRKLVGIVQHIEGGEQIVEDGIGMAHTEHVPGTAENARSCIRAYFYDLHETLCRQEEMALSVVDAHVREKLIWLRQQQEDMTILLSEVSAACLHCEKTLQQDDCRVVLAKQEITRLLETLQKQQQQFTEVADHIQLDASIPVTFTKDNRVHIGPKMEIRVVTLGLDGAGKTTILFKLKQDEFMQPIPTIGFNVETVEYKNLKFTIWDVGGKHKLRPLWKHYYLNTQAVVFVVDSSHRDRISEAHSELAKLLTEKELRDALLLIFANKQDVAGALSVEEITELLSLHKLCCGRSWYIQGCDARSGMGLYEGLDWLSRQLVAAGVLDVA
Consider P34S, for which the “effect of a mutation on the interaction” value was “with no effect”.

The variants in the next assay derive from B2. As to conditions: with tri54_human TRIM54, Q9BYV2.
Take E295K: the “effect of a mutation on the interaction” value is listed as “disrupting interaction strength”.

In another assay the parent is B3. The settings on record: with tssk3_human TSSK3, Q96PN8.
Take E295K: the “effect of a mutation on the interaction” value is “disrupting interaction strength”.

In the next assay the parent is B4. The settings on record: with pogz_human POGZ.
T589M: the “effect of a mutation on the interaction” value is on record as “with no effect”.
